Measured values as given in patent publication US20260125457A1 (Janssen / Centocor, published 2026).

B1: CALRB114 (MP1001 Fab x CD3W245-HL-scFv, high affinity) (bispecific antibody, part only; not given: CD3 scFv arm and IgG1 constant regions, V domains shown, not shown: another chain or arm of the molecule; a dimerising Fc or GST; small tags and cut ends)
VH: QEQLKESGGRLVTPGTPLTLTCAVSGFSLDIYGMSWVRQAPGKGLEWIGIIYIEGITYYANWAKGRFTISKTSSTTLELKMTSLTTEDTAMYFCVAGVGRIWGPGTLVTVSS
VL: YVMMTQTPSSVSAAVGGTVTINCQASQSLYNNNNLAWFQQKPGQPPKRLIYPASTLASGVSSRFKGSGSGTQFTLTISDVQSDDAATYFCLGEFSCSSADCYAFGGGTEVVVK
B2: CALRB75 (MP1004 Fab x CD3W245-LH-scFv, medium affinity) (bispecific antibody, part only; not given: CD3 scFv arm and IgG1 constant regions, V domains shown, not shown: another chain or arm of the molecule; a dimerising Fc or GST; small tags and cut ends)
VL: DPMLTQTPSSVSAAVGGTVTINCQSSQSVYNNNWLSWLQQKPGQPPNRLIYDASKLESGVPSRFSGSGSGTQFTLTISGVQSDDAATYYCAGGFTGNVYTFGGGTEVVVK
VH: QEQLEESGGRLVTPGTPLTLTCKVSGIDLSNNAISWVRQAPGKGLEYIGVIGNTGDTYYASWAKGRFTISKTSSTTVDLKMTSLTTEDTATYFCVRGPPSYSNSVKNIWGPGTLVTISS
B3: CALRB116 (MP1007 Fab x CD3W245-HL-scFv, high affinity) (bispecific antibody, part only; not given: anti-CD3 scFv arm, constant regions, V domains shown, not shown: another chain or arm of the molecule; a dimerising Fc or GST; small tags and cut ends)
VH: QQLEESGGRLVAPGTPLRLTCTVSGIDLSNNAVSWVRQAPGKGLEYIGVIGNTGTTYYANWAKGRFTISKTSSTTVDLKMTSLTTDDTATYFCVRGPPSYSNSVRNIWGPGTLVTVSS
VL: DPMLTQTPSSVSAAVGGTVTIGCQSSQSVYDNNWLSWYQQKPGQPPNRLIYDASKLASGVPSRFSGSGSGTQFTLTISGVKSDDAATYYCAGGYTGNVYSFGGGTMVEIK
B4: CALRB76 (MP1007 Fab x CD3W245-LH-scFv, medium affinity) (bispecific antibody, part only; not given: CD3 scFv arm and IgG1 constant regions, V domains shown, not shown: another chain or arm of the molecule; a dimerising Fc or GST; small tags and cut ends)
VL: DPMLTQTPSSVSAAVGGTVTIGCQSSQSVYDNNWLSWYQQKPGQPPNRLIYDASKLASGVPSRFSGSGSGTQFTLTISGVKSDDAATYYCAGGYTGNVYSFGGGTMVEIK
VH: QQLEESGGRLVAPGTPLRLTCTVSGIDLSNNAVSWVRQAPGKGLEYIGVIGNTGTTYYANWAKGRFTISKTSSTTVDLKMTSLTTDDTATYFCVRGPPSYSNSVRNIWGPGTLVTVSS
B5: CALRB117 (MP1010 Fab x CD3W245-HL-scFv, high affinity) (bispecific antibody, part only; not given: anti-CD3 scFv arm, constant regions, V domains shown, not shown: another chain or arm of the molecule; a dimerising Fc or GST; small tags and cut ends)
VH: QSVEESGGRLVTPGTPLTLTCTVSGIDLSNNAISWVRQAPGKGLEYIGVIGNTGDTYYASWAKGRFTISKTSSTTVDLKMTSLTTEDTATYFCVRGPPSYSNSVKNIWGPGTLVTISS
VL: DPMLTQTPSSVSAAVGGTVTIGCQSSQSVYDKNWLSWYQQKPGQPPSRLIYDASKLESGVPSRFSGSGSGTQFTLTISGVQSDDVATYYCAGGFTGNVYAFGGGTEVVVK
B6: CALRB74 (MP1001 Fab x CD3W245-LH-scFv, medium affinity) (bispecific antibody, part only; not given: CD3 scFv arm and IgG1 constant regions, V domains shown, not shown: another chain or arm of the molecule; a dimerising Fc or GST; small tags and cut ends)
VL: YVMMTQTPSSVSAAVGGTVTINCQASQSLYNNNNLAWFQQKPGQPPKRLIYPASTLASGVSSRFKGSGSGTQFTLTISDVQSDDAATYFCLGEFSCSSADCYAFGGGTEVVVK
VH: QEQLKESGGRLVTPGTPLTLTCAVSGFSLDIYGMSWVRQAPGKGLEWIGIIYIEGITYYANWAKGRFTISKTSSTTLELKMTSLTTEDTAMYFCVAGVGRIWGPGTLVTVSS
B7: CALRB77 (MP1010 Fab x CD3W245-LH-scFv, medium affinity) (bispecific antibody, part only; not given: anti-CD3 scFv arm, constant regions, V domains shown, not shown: another chain or arm of the molecule; a dimerising Fc or GST; small tags and cut ends)
VL: DPMLTQTPSSVSAAVGGTVTIGCQSSQSVYDKNWLSWYQQKPGQPPSRLIYDASKLESGVPSRFSGSGSGTQFTLTISGVQSDDVATYYCAGGFTGNVYAFGGGTEVVVK
VH: QSVEESGGRLVTPGTPLTLTCTVSGIDLSNNAISWVRQAPGKGLEYIGVIGNTGDTYYASWAKGRFTISKTSSTTVDLKMTSLTTEDTATYFCVRGPPSYSNSVKNIWGPGTLVTISS
B8: CALRB118 (MP1016C Fab x CD3W245-HL-scFv, high affinity) (bispecific antibody, part only; not given: CD3 scFv arm and IgG1 constant regions, V domains shown, not shown: another chain or arm of the molecule; a dimerising Fc or GST; small tags and cut ends)
VL: DPVLTQTESPVSAAVGGTVTINCQASQSVYDDNNLAWYQQKPGQPPKRLIYPASTLASGVSSRFSGSGSGSQFTLTISDVQSDDAATYYCQGEFSCTSADCVAFGGGTEVVVK
VH: QEQLKESGGRLVTPGTPLTLTCTASGFSLSNYYMSWVRQAPGKGLEWIGGISSRAGTWYASWAKGRFTISGTSSTTMDLKITSPTTEDTATYFCARGLKIWGPGTLVTVSS

What was measured:
[1] = target: CALRdel52 (mutant calreticulin, 52 base pair deletion, Type 1) expressed with MPL on engineered cancer cells (UniProt P27797); assay: cell-based or functional assay
Sequence of CALRdel52 (mutant calreticulin, 52 base pair deletion, Type 1) expressed with MPL on engineered cancer cells (P27797 other isoform, or with tags, fused parts or gaps mutant limits assumed): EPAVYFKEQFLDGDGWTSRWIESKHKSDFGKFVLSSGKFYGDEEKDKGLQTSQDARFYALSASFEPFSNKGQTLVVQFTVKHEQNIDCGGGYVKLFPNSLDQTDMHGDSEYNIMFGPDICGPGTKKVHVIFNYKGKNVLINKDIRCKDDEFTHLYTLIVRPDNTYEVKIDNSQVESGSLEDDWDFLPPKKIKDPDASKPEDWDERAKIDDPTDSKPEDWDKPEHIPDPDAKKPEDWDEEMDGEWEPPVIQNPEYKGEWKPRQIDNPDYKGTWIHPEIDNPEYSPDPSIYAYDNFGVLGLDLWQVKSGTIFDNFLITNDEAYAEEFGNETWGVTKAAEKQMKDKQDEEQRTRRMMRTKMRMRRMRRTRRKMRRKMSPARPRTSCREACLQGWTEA

[2] = target: CALRins5 (mutant calreticulin, 5 base pair insertion, Type 2) expressed with MPL on engineered cancer cells (UniProt P27797); assay: cell-based or functional assay
Sequence of CALRins5 (mutant calreticulin, 5 base pair insertion, Type 2) expressed with MPL on engineered cancer cells (P27797 other isoform, or with tags, fused parts or gaps mutant limits assumed): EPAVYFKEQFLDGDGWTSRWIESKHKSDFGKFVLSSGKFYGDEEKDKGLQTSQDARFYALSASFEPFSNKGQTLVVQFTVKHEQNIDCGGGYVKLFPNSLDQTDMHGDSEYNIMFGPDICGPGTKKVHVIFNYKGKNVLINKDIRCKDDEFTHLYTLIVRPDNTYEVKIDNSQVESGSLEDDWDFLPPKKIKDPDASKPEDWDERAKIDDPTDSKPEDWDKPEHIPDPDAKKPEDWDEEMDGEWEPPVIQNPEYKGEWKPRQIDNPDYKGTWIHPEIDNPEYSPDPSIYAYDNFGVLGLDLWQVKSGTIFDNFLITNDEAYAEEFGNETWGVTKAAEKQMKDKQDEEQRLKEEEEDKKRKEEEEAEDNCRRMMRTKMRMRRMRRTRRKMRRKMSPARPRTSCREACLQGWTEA

Binder	Cytotoxicity EC50, K562 MPL CALRdel52 cells [1] [µg/mL]	Cytotoxicity EC50, OCI-M2 MPL CALRdel52 cells [1] [µg/mL]	Cytotoxicity EC50, K562 MPL CALRins5 cells [2] [µg/mL]	Cytotoxicity EC50, OCI-M2 MPL CALRins5 cells [2] [µg/mL]
B1	0.0112	0.0168	0.0163	0.0235
B2	0.193	0.115	0.116	0.129
B3	0.0243	0.0802	0.0953	0.0392
B4	0.0633	0.0897	0.107	0.189
B5	0.0403	0.0598	0.0741	0.0481
B6	0.0521	0.0253	0.0304	0.0322
B7	0.195	0.183	0.414	0.189
B8	0.0099	0.505	0.0157	0.0136
